In US20230147962A1, “FIBROBLAST ACTIVATION PROTEIN LIGANDS FOR TARGETED DELIVERY APPLICATIONS” (PHILOCHEM AG, priority 2020, published 2023):

Legend:
SK-RC-52.hFAP tumour = assay: Therapy experiment in SK-RC-52.hFAP tumour bearing mice; conditions: 500 nmol/kg intravenously from day 8 for 6 consecutive days
Description: SK-RC-52.hFAP xenografted tumors were implanted into female athymic BALB/C nu/nu mice (6-8 weeks of age) as described above, and allowed to grow to an average volume of 0.1 mL.
Mice were randomly assigned into 8 therapy groups of 4 animals each (5 single-agent groups, 2 combination groups and vehicle group). […] L19-IL2 was diluted at 330 μg/mL in the appropriate formulation buffer and intravenously administered at the dose of 2.5 mg/kg.
Mice in single-agent groups received daily injections of ESV6-ValCit-MMAE, QCOOH-ValCit-MMAE or L 19-IL2.
Mice in combination groups received daily injections of ESV6-ValCit-MMAE on day 8,10 and 12 after tumor implantation, and of L 19-IL2 on day 9,11 and 13 after tumor implantation.
Tumors were measured with an electronic caliper and animals were weighted daily. Tumor volume (mm^3) was calculated with the formula (long side, mm)×(short side, mm)×(short side, mm)×0.5.
Prism 6 software (GraphPad Software) was used for data analysis (regular two-way ANOVA followed by Bonferroni test).

SK-MEL-187 tumour = conditions: 250 nmol/kg daily for 7 consecutive days
Description: SK-MEL-187 xenografted tumours were implanted into female athymic BALB/C nu/nu mice (6-8 weeks of age) as described above, and allowed to grow to an average volume of 0.1 mL. Mice were randomly assigned into therapy groups of 3 animals. […] Tumours were measured with an electronic caliper and animals were weighted daily. Tumour volume (mm^3) was calculated with the formula (long side, mm)×(short side, mm)×(short side, mm)×0.5 (FIG. 8). Prism 6 software (GraphPad Software) was used for data analysis (regular two-way ANOVA followed by Bonferroni test).

[1] = system: SK-RC-52.hFAP and SK-RC-52.wt tumours; conditions: 250 nmol/kg, 6 hours after intravenous administration
Description: (§3) SK-RC-52.hFAP (right flank) and SK-RC-52.wt (left flank) xenografted tumors were implanted into female athymic BALB/C nu/nu mice (6-8 weeks of age) as described above, and allowed to grow to an average volume of 0.1 mL.
(§4) Frozen organs were cutted with a scalpel (50 mg), and suspended in 600 μL of 95:5 Acetonitrile/water (0.1% TFA). A solution of D8-MMAE in 3:97 Acetonitrile/water (0.1% FA; internal standard, 50 μL, 50 nM) was added. The samples were mechanically lysed with a Tissue Lyser II (Qiagen, 30 Hz shaking, 15 minutes). Plasma samples (50 μL) were added with a solution of D8-MMAE in 3:97 Acetonitrile/water (0.1% FA; internal standard, 50 μL, 50 nM) and proteins were precipitated by addition of 600 μL of 95:5 Acetonitrile/water (0.1% TFA). Proteins from both organs and plasma samples were pelleted by centrifugation and supernatants were dried with a vacuum centrifuge. Solid remanences were resuspended in 1 mL of 3:97 Acetonitrile/water (0.1% TFA) and solutions were cleaned up through a first purification step on HBL Oasis columns and a second purification on C18 Macro Spin Columns. Purified dried eluates were resuspended in 150 μL of 3:97 Acetonitrile/water (0.1% FA) and analyzed by MS. All samples were analysed by liquid chromatography-tandem mass spectrometry (LC-MS/MS) using a Q Exactive Mass Spectrometer fitted with an EASY-nLC 1000 (both Thermo Fisher Scientific). Analytes were resolved with an Acclaim PepMap RSLC C18, 50 m×150 mm, 2 m analytical column (Thermo Fisher Scientific) at a flow rate of 0.3 It/min by running a linear gradient from 3% to 50% ACN over 60 min. All buffers contained 0.1% formic acid. MS spectra were recorded in SIM scan mode with a resolution of 70000 and a maximum injection time of 100 ms. MS/MS were recorded at a resolution of 35000 and a maximum injection time of 250 ms.
(§5) Raw files were then analysed with the Skyline software. MS1 areas of the two ions were used for quantification.

in vivo = conditions: female, BALB/C nu/nu, mouse, iv, 250 nmol/kg
Description: as §3, §4, §5

[2] = system: SK-RC-52.hFAP and SK-RC-52.wt xenografts; assay: Ex vivo targeting experiment, SK-RC-52.hFAP and SK-RC-52.wt xenografts; format: in vivo, BALB/C nu/nu mice; conditions: 40 nmol intravenous, ex vivo organ images 1 h
Description: (§1) SK-RC-52.hFAP, HT-1080.hFAP, SK-RC-52.wt cells were grown to 80% confluence and detached with Trypsin-EDTA 0.05%. Cells were re-suspended in HBSS medium to a final concentration of 5×10^7 cells/mL. […] SK-MEL-187 cells were grown to 80% confluence and detached with Trypsin-EDTA 0.05%. Cells were re-suspended in a 1:1 mixture of HBSS:Matrigel to a final concentration of 10×10^7 cells/mL.
(§2) Mice bearing subcutaneous SK-RC-52.hFAP or HT-1080.hFAP tumors on the right flank and SK-RC-52.wt tumor on the left flank were injected intravenously with conjugate 30 (40 nmol in sterile PBS, pH 7.4). […] Cryostat sections ([…]) were cut and nuclei were stained with Fluorescence Mounting Medium (Dako Omnis, Agilent). Images were obtained using an Axioskop2 mot plus microscope (Zeiss) and analyzed by ImageJ 1.53 software.

[3] = system: HT-1080.hFAP and SK-RC-52.wt xenografts; assay: Ex vivo targeting experiment, HT-1080.hFAP and SK-RC-52.wt xenografts; format: in vivo, BALB/C nu/nu mice; conditions: 40 nmol intravenous, ex vivo organ images 1 h
Description: as §1, §2

SMILES | anti-tumour effect (mean tumour volume) (SK-RC-52.hFAP tumour) | anti-tumour effect (mean tumour volume) (SK-MEL-187 tumour) | tolerability (changes in body weight), acute toxicity (SK-MEL-187 tumour) | accumulation in FAP-negative SK-RC-52 wild type tumours [1] | uptake at the tumour site (FAP-positive SK-RC-52) [1] [% ID/g] | uptake in healthy organs [1] | tissue uptake at 6 h (in vivo; SK-RC-52.hFAP tumour (FAP-positive)) [%ID/g] | tissue uptake at 6 h (in vivo; healthy organs) [%ID/g] | targeting performance, SK-RC-52.hFAP and SK-RC-52.wt xenografts [2] | targeting performance, HT-1080.hFAP and SK-RC-52.wt xenografts [3]
CC[C@H](C)[C@@H]([C@@H](CC(=O)N1CCC[C@H]1[C@H](OC)[C@@H](C)C(=O)N[C@H](C)[C@@H](O)c1ccccc1)OC)N(C)C(=O)[C@@H](NC(=O)[C@H](C(C)C)N(C)C(=O)OCc1ccc(NC(=O)[C@H](CCCNC(N)=O)NC(=O)[C@@H](NC(=O)CCCCCN2C(=O)CC(SC[C@H](NC(=O)[C@H](CC(=O)O)NC(=O)[C@H](CCCCN)NC(=O)[C@H](CC(=O)O)NC(=O)CCC(=O)Nc3cccc4c(C(=O)NCC(=O)N5CC(F)(F)C[C@H]5C#N)ccnc34)C(=O)O)C2=O)C(C)C)cc1)C(C)C (stereo partly shown) [ESV6-ValCit-MMAE] | more potent anti-tumour effect as compared with QCOOH-ValCit-MMAE | more potent anti-tumour effect as compared with HABERKORN-ValCit-MMAE | lower acute toxicity as compared to HABERKORN-ValCit-MMAE | does not accumulate in FAP-negative SK-RC-52 wild type tumours | 18 | lower than 1 % ID/g | 18 | < 1 | – | –
N#C[C@@H]1CC(F)(F)CN1C(=O)CNC(=O)c1ccnc2c(NC(=O)CCC(=O)N[C@@H](CC(=O)O)C(=O)N[C@@H](CCCCN)C(=O)N[C@@H](CC(=O)O)C(=O)N[C@@H](CSC3CC(=O)N(CCCCCNC(=O)c4ccc5c(c4)C(=O)OC54c5ccc(N)c(S(=O)(=O)O)c5Oc5c4ccc(N)c5S(=O)(=O)O)C3=O)C(=O)O)cccc12 (stereo in doubt) [conjugate 30, ESV6-Alexa Fluor 488] | – | – | – | – | – | – | – | – | localises rapidly, homogeneously and selectively in vivo at the tumour which presents FAP expression 1 hour after the intravenous injection, with an excellent tumour-to-organs selectivity | rapidly, homogeneously and selectively localizes in vivo at the tumour which presents FAP expression 1 hour after the intravenous injection, with an excellent tumour-to-organs selectivity
